# Reference: patent US9777044B2, “GLUT-1 as a receptor for HTLV envelopes and its uses” (CENTRE NATIONAL DE LA RECHERCHE SCIENTIFIQUE (CNRS), priority 2003, dated 2017)
# Positions count from the first letter of the chain named. Numbers in names are those of the source.
# T1: GLUT-1 (Homo sapiens, UniProt P11166)
# T1 construct: factor Xa cleavage site (C); His (C); expressed in transfected cells
# T1 sequence (P11166 1-492): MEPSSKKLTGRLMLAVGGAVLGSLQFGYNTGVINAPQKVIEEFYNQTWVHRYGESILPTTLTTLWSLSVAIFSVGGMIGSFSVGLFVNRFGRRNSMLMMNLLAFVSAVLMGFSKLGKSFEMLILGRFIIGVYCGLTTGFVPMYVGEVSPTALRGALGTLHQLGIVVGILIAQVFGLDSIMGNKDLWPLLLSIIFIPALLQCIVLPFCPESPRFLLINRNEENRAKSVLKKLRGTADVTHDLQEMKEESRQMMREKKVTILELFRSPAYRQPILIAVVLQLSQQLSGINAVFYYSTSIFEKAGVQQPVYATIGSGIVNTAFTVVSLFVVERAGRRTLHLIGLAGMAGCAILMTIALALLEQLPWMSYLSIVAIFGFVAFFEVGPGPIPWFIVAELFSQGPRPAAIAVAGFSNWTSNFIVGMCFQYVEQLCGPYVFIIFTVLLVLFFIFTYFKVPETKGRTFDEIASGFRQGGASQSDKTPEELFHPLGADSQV
# T2: HTLV receptor (Homo sapiens, UniProt P11166)
# T2 construct: endogenous in cells; host or cells: HeLa cells
# T2 sequence (P11166 1-492): T1 sequence (P11166 1-492)
# B1: H2RBD: first 178 residues of HTLV2-SU fused to a C-terminal rabbit IgG Fc tag (rFc) (protein)
# chain: VDVPRDCGCKPCICTVPEVSSVFIFPPKPKDVLTITLTPKVTCVVVDISKDDPEVQFSWFVDDVEVHTAQTQPREEQFNSTFRSVSELPIMHQDWLNGKEFKCRVNSAAFPAPIEKTISKTKGRPKAPQVYTIPPPKEQMAKDKVSLTCMITDFFPEDITVEWQWNGQPAENYKNTQPIMDTDGSYFVYSKLNVQKSNWEAGNTFTCSVLHEGLHNHHTEKSLSHSPGK
# B2: D106A (protein)
# chain: DYSPSCCTLTIGVSSYHSKPCNPAQPVCSWTLDLLALSADQALQPPCPNLVSYSSYHATYSLYLFPHWIKKPNRNGGGYYSASYSAPCSLKCPYLGCQSWTCPYTGAVSSPYWKFQQDVNFTQEVSRLNINLHFSKCGFPFSLLVDAPGYDPIWFLNTEPSQLPPTAPPLLPHSNLDHILEPSIPWKSKLLTLVQ
# B3: Y114A (protein)
# chain: B2 chain with A86D, Y94A
# Key:
# 293T cells [1] = assay: Hexose uptake assay: 2-deoxyglucose; type: cell-based, human; conditions: for glucose uptake in presence of glucose transporter inhibitors: control 293T cells, 20 μM cytochalasin B, 300 μM phloretin
# Protocol: (§1) Assay of hexose uptake. 2-deoxy-D[1-^3H]glucose, D[U-^14C]fructose and 3-O-[^14C]methyl-D-glucose were obtained from Amersham. Hexose uptake assay were adapted from Harrison et al. 1991). After transfection, approximately 250,000 were seeded/well in 24-well plates. […] Uptake was initiated by adding labeled hexoses to a final concentration of 0.1 mM (2 μCi/ml for 2-2-deoxy-D[1-^3H]glucose and 0.2 μCi/ml for D[U-^14C]fructose and 3-O-[^14C]methyl-D-glucose) and cells were incubated for 5′ additional minutes. Cells were then resuspended in 500 μl cold serum-free glucose-free DMEM, wash one time in serum-free glucose-free DMEM, and solubilized in 400 μl of 0.1% SDS. 3 μl was used for Bradford normalization, while the rest was used for detection of either ^3H or ^14C by liquid scintillation in a Beckman counter.
# GLUT-1 [2] = biological target: T1, GLUT-1; assay: Colocalization with GLUT-1 by fluorescence microscopy; type: cell-based
# Description: (§2) In order to directly test the ability of HTLV envelopes to bind GLUT-1, we derived a tagged GLUT-1 expression vector and overexpressed this protein in HeLa cells. […] GLUT-3 is the closest isoform to GLUT-1, and transports glucose with kinetics similar to that of GLUT-1. Thus, we derived a tagged GLUT-3 expression vector. […] To determine if GLUT-1 transfected cells were directly responsible for the observed increased in H1RBD binding, we derived fluorescent tagged GLUT-1 and GLUT-3 to uniquevocally identity GLUT-overexpressing cells in the course of our FACS analysis. […] Consequently, we tested if HTLV glycoproteins directly interact with GLUT-1 proteins. To this end, we evaluated the ability of H1RBD to immunoprecipitate GLUT-1. […] Therefore, the GLUT-1 glucose transporter is an essential component of the HTLV envelope receptor.
# PiT2 [3] = assay: Colocalization with PiT2 by fluorescence microscopy; type: cell-based
# 293T cells [4] = assay: Medium acidification after transfection of envelope expression vectors; type: cell-based, human; conditions: 293T cells transfected with envelope expression vector; phenol-red pH indicator
# [5] = tested on: MLV particles pseudotyped with A-MLV envelopes; assay: Interference to infection by A-MLV envelope pseudotyped MLV particles; type: cell-based; conditions: 293T cells transfected with H2RBD expression vector
# Description: (§3) Viral receptor permits entry and thus infection. No cellular system currently exists that lacks GLUT-1 expression. […] In this system, over-expression of HTLV-2 RBD interferes with infecting incoming HTLV particles and specifically decreases HTLV titers by at least 2 logs, while no effect is detected on control A-MLV titers. To determine if GLUT-1 is an entry receptor for HTLV, we overexpressed GLUT-1, GLUT-3 or Pit2 in addition to the interfering H2RBD. While Pit2 and GLUT-3 had no effect on HTLV titers, GLUT-1 completely alleviated the interference to infection induced by H2RBD (FIG. 5). […] Thus, GLUT-1 is an entry receptor for HTLV.
# (§4) Infections. 293T cells were transfected in 6-wells plate, and one day after transfection, medium was replaced by high glucose DMEM supplemented with fructose (5 g/l) and non-essential amino acids. The next day, infection was initiated by adding supernatants containing MLV particles pseudotyped with either HTLV-2 or A-MLV envelopes. The following day, fresh medium was added, and 24 hours later cells were fixed and stained for alkaline phosphatase activity and dark focus of infection were counted. Viral particles were obtained by transfecting 293T cells with pLAPSN, pGagPol and either pCSIX.H2 or pCSI.A, and harvesting the 0.45 μm-filtered supernatants 24 hours later.
# 293T cells [6] = assay: Hexose uptake assay: fructose; type: cell-based, human; conditions: transfected 293T cells
# Protocol: as §1
# PiT2 [7] = assay: RBD binding to cells overexpressing PiT2
# GLUT-1 [8] = biological target: T1, GLUT-1; assay: RBD binding to cells overexpressing GLUT-1; conditions: tagged GLUT-1 expression vector, HeLa cells / 293T cells (FIG. 4a legend)
# Description: as §2
# Expression vectors. Full length envelope expression vectors for HTLV-1 (pCEL/2[Denesvre, 1995]) and Friend ecotropic MLV (pCEL/F [Denesvre, 1995]), have been previously described. For the HTLV-2 envelope, a fragment from pHTE2 [Rosenberg, 1998] encompassing the tax, rex and env genes and the 3′ LTR was inserted in the pCSI [Battini, 1999] vector (pCSIX.H2). Full length envelope expression vectors for amphotropic MLV (pCSI.A), or devoid of its R peptide (pCSI.AΔR), and H183FEnv that contains the N-terminal 183 amino acids of the HTLV-1 receptor-binding domain in the F-MLV envelope background, as well as truncated envelope expression vectors, derived from pCSI and encoding either of the first 215 residues of HTLV-1 SU (H1RBD), the first 178 residues of HTLV2-SU (H2RBD) or the first 397 residues of the amphotropic murine leukemia virus (MLV) SU (Amp), fused to a C-terminal rabbit IgG Fc tag (rFc) or to EGFP (H2RBD-GFP). All point mutations introduced in HTLV-1 and -2 RBD constructs were generated using the quickchange site-directed mutagenesis method and mutations were verified by sequencing. Human Glut-1 and Glut-3 cDNA were amplified by PCR from the pLib HeLa cDNA library (Clontech), and inserted into pCHIX, a modified version of the pCSI vector that contains a cassette comprising a factor Xa cleavage site, two copies of the hemagglutinin (HA) tag, and a histidine tag. The resulting construct (pCHIX.hGLUT1) encodes a GLUT-1 protein with a HA-His tag at the C-terminal end. GLUT-1 and GLUT-3 were also inserted in a modified pCSI vector containing a DsRed2 C-terminal tag. Similarly, human CD147 was amplified from 293T total RNA by RT-PCR and inserted into the pCHIX backbone in frame with the HA-His tag (pCHIX.hCD147).
# Binding assays. […] Binding was analyzed on a FACSCalibur (Becton Dickinson) and data analysis was performed using CellQuest (Becton Dickinson) and WinMDI (Scripps) softwares.
# [9] = tested on: MLV particles pseudotyped with HTLV-2 envelopes; assay: Interference to infection by HTLV-2 envelope pseudotyped MLV particles; type: cell-based; conditions: 293T cells transfected with H2RBD expression vector
# Description: as §3, §4
# HTLV receptor = biological target: T2, HTLV receptor; assay: FACS binding assay of RBD and mutants on HeLa cells
# Protocol: Binding assays. Binding assays were carried out as previously described [Manel, 2003]. Briefly, 5×10^5 cells (293T, HeLa, Jurkat or freshly isolated human erythrocytes) were incubated with 500 μl of H1RBD, H2RBD or ARBD supernatants for 30 min at 37° C., washed with PBA (1% BSA, 0.1% sodium azide in PBS), and incubated with a sheep anti-rabbit IgG antibody conjugated to fluorescein isothiocyanate (Sigma). […] Binding was analyzed on a FACSCalibur (Becton Dickinson) and data analysis was performed using CellQuest (Becton Dickinson) and WinMDI (Scripps) softwares.
# 293T cells [10] = assay: Extracellular lactate in culture medium of transfected cells; type: cell-based, human; conditions: medium of 293T cells one day post transfection
# Protocol: Envelope expression and metabolic measurements. 293T cells were transfected with the various envelope expression vectors using a modified version of the calcium phosphate method. After an overnight transfection, cells were washed in phosphate-buffered saline (PBS) and fresh medium was added. Media were harvested at the indicated time points, filtered through a 0.45-μm pore-size filter, and lactate and glucose were measured with enzymatic diagnostic kits (Sigma). Values were normalized to cellular protein content using the Bradford assay (Sigma) after solubilization of cells in lysis buffer (50 mM Tris-HCl pH 8.0, 150 mM NaCl, 0.1% sodium dodecyl sulfate, 1.0% Nonidet P-40, 0.5% deoxycholate) and clarification by centrifugation.
# GLUT-1 [11] = biological target: T1, GLUT-1; assay: Immunoprecipitation of GLUT-1-HA with anti-rabbit-Fc beads; type: binding; conditions: co-expression with GLUT-1 in 293T cells, probed with anti-HA antibody
# Description: FIGS. 4a-4c GLUT-1 is a receptor for HTLV envelopes. FIG. 4a, Binding of H1RBD, H2RBD, H2RBD D102A mutant, and ARBD to control 293T cells or 293T cells overexpressing either GLUT-1 or PiT2. FIG. 4b, Binding of H2RBD-EGFP to cells overexpressing GLUT-1-HA or GLUT-3-HA, and corresponding immunoblots using an anti-HA antibody. FIG. 4c, Immunoprecipitation of GLUT-1-HA from 293T cells transfected with either an irrelevant construct, GLUT-1 alone, H1RBD alone, H1RBD Y114A alone, GLUT-1 with H1RBD or GLUT-1 with H1RBD Y114A expression vectors Immunoprecipitation was performed using anti-rabbit-Fc beads and probed with an anti-HA antibody. Total cell extracts were blotted using an anti-rabbit Fc or an anti-HA antibody.
# In order to directly test the ability of HTLV envelopes to bind GLUT-1, we derived a tagged GLUT-1 expression vector and overexpressed this protein in HeLa cells. […] GLUT-3 is the closest isoform to GLUT-1, and transports glucose with kinetics similar to that of GLUT-1. Thus, we derived a tagged GLUT-3 expression vector. […] To determine if GLUT-1 transfected cells were directly responsible for the observed increased in H1RBD binding, we derived fluorescent tagged GLUT-1 and GLUT-3 to uniquevocally identity GLUT-overexpressing cells in the course of our FACS analysis. […] To this end, we evaluated the ability of H1RBD to immunoprecipitate GLUT-1. […]
molecule,measurement,setting,value
"C=C1[C@@H](C)[C@H]2[C@H](Cc3ccccc3)NC(=O)[C@]23OC(=O)/C=C/[C@H](O)CCC[C@@H](C)C/C=C/[C@H]3[C@@H]1O [cytochalasin B, reference compound]",glucose uptake in presence of glucose transporter inhibitors,293T cells [1],inhibited glucose uptake
"O=C(CCc1ccc(O)cc1)c1c(O)cc(O)cc1O [phloterin, phloretin, reference compound]",glucose uptake in presence of glucose transporter inhibitors,293T cells [1],inhibited glucose uptake
GFP-tagged HTLV-2 RBD,colocalization with GLUT-1,GLUT-1 [2],colocalized with GLUT-1
same,colocalization with PiT2,PiT2 [3],not with PiT2
HTLV-2 Env: full length syncytial wild-type HTLV-2 envelope (pCSIX.H2) (MKWVTFISLLFLFSSAYS),medium acidification,293T cells [4],did not readily acidify
B1,decrease in 2-deoxyglucose uptake,293T cells [1]; transfected 293T cells vs control cells,approximately 4 fold
same,effect on control A-MLV titers,[5],no effect
same,Fructose uptake,293T cells [6],not altered
same,binding upon overexpression of PiT2,PiT2 [7],remained at background levels
same,binding upon GLUT-1 overexpression,GLUT-1 [8],dramatically increased
same,decrease of HTLV titers by over-expression of interfering RBD,[9],at least 2 logs
B2,binding upon GLUT-1 overexpression,GLUT-1 [8],did not bind GLUT-1
same,binding to the HTLV receptor as detected by FACS analysis,HTLV receptor,significantly reduced
same,lactate accumulation in cells expressing RBD mutant,293T cells [10],minimally reduced
B3,detection of GLUT-1 upon immunoprecipitation with anti-rabbit-Fc-beads,GLUT-1 [11],could not be detected
same,binding to the HTLV receptor as detected by FACS analysis,HTLV receptor,non-detectable
same,lactate accumulation in cells expressing RBD mutant,293T cells [10],not reduced
